Holding throughout (test): SPR (Biacore); binding relative to GpH7-A5/GpH7-B3/GpL16-k0 x100;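 note: antibodies captured on a chip surface, soluble FcγR flowed over in HBS-EP+ running buffer at 25 °C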
(SPR reads the build-up and loss of mass on a sensor chip optically.)

For assay [1], the target named is T1, FcγRIIa(R) extracellular domain, C-terminal His tag (human, UniProt P12318 34-217).
T1 construct: extracellular domain; Allotype R131; also called 2aR
T1 sequence: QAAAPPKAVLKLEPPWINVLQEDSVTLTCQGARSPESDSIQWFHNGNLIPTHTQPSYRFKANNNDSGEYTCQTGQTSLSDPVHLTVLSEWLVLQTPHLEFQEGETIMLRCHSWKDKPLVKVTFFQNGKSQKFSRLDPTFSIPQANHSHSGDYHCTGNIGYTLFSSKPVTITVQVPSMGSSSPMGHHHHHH

Assay [2] addresses T2, FcγRIIa(H) extracellular domain, C-terminal His tag (human, UniProt P12318 34-217).
T2 construct: extracellular domain; Allotype H131; also called 2aH
T2 sequence: T1 sequence with R134H

Assay [3] deals with T3, FcγRIa extracellular domain, C-terminal His tag (human, UniProt P12314 16-292).
T3 construct: extracellular domain; also called 1a
T3 sequence (P12314 other isoform, or with tags, fused parts or gaps): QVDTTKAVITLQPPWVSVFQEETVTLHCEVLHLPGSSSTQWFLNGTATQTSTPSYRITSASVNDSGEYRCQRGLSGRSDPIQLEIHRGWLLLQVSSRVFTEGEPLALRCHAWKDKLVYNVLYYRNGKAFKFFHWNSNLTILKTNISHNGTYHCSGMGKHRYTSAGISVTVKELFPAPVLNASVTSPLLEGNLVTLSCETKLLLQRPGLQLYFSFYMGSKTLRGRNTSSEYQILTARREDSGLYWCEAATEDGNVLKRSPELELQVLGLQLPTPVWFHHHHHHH

In assay [4] the target is T4, FcγRIIb extracellular domain, C-terminal His tag (human, UniProt P31994 43-217).
T4 construct: extracellular domain; also called 2b
T4 sequence: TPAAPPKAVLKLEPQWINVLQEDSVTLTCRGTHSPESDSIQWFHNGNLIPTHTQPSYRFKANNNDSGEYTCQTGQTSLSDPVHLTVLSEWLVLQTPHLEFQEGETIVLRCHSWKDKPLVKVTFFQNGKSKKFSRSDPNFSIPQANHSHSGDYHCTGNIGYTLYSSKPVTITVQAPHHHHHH

Assay [5] has as its target T5, FcγRIIIa extracellular domain, C-terminal His tag (human, UniProt P08637 17-208).
T5 construct: extracellular domain; also called 3a

Consider eleven molecules from patent US20260167699A1 (Chugai, published 2026).

Numbering of substitutions follows the chain as printed.

T5 sequence (P08637 other isoform, or with tags, fused parts or gaps): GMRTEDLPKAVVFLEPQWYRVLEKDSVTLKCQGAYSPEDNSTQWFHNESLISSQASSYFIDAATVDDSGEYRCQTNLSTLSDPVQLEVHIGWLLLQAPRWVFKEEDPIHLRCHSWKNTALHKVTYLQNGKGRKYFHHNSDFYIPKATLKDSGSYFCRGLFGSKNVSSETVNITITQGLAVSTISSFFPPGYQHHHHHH

B1: GpH7-A5/GpH7-B3 variant I332_06M/GpL16-k0 (antibody, human IgG1, kappa)
heavy 1: not shown
heavy 2: not shown
light: DIVMTQSPLSLPVTPGEPASISCQASESLVHSNRNTYLHWYLQKPGQSPQLLIYKVSNRFSGVPDRFSGSGSGTDFTLKISRVEAEDVGVYYCSQNTHVPPTFGQGTKVEIERTVAAPSVFIFPPSDEQLKSGTASVVCLLNNFYPREAKVQWKVDNALQSGNSQESVTEQDSKDSTYSLSSTLTLSKADYEKHKVYACEVTHQGLSSPVTKSFNRGEC
notes: He Ab: anti-glypican 3 IgG1 heterodimer, only the GpH7-B3 chain mutated; position in EU numbering; also called He Ab
As to B1, the “He/Con 2aR” value in assay [1] is 108%. Further, in assay [2], the “He/Con 2aH” value amounted to 114%. In assay [3], the “He/Con 1a” value was found to be 105%. The “He/Con 2b” value in assay [4] stood at 116%. In addition, the “He/Con 3a” value in assay [5] turned out to be 92.5%.

B2: GpH7-A5/GpH7-B3 variant K326_04F/GpL16-k0 (antibody, human IgG1, kappa)
heavy 1: not shown
heavy 2: not shown
light: B1 light
notes: as for B1
For the molecule B2, in assay [1], the “He/Con 2aR” value is 129%. Moreover, the “He/Con 2aH” value in assay [2] worked out at 101%. Also, the “He/Con 1a” value in assay [3] came to 107%. In addition, the “He/Con 2b” value in assay [4] was 174%. In addition, the “He/Con 3a” value in assay [5] came out at 114%.

B3: GpH7-A5/GpH7-B3 variant I332_13S/GpL16-k0 (antibody, human IgG1, kappa)
heavy 1: not shown
heavy 2: not shown
light: B1 light
notes: as for B1
For the molecule B3, the “He/Con 2aR” value in assay [1] worked out at 97.9%. Further, the “He/Con 2aH” value in assay [2] was found to be 113%. Besides, the “He/Con 1a” value in assay [3] was found to be 97.3%. The “He/Con 2b” value in assay [4] was found to be 109%. Further, the “He/Con 3a” value in assay [5] stood at 95.6%.

B4: GpH7-A5/GpH7-B3 variant I332_14T/GpL16-k0 (antibody, human IgG1, kappa)
heavy 1: not shown
heavy 2: not shown
light: B1 light
notes: as for B1
Turning to B4, the “He/Con 2aR” value in assay [1] was determined as 104%. In assay [2], the “He/Con 2aH” value was determined as 119%. In assay [3], the “He/Con 1a” value is 104%. Besides, the “He/Con 2b” value in assay [4] came out at 118%. In addition, in assay [5], the “He/Con 3a” value was 110%.

B5: GpH7-A5/GpH7-B3 variant K326_03V/GpL16-k0 (antibody, human IgG1, kappa)
heavy 1: not shown
heavy 2: not shown
light: B1 light
notes: as for B1
Turning to B5, the “He/Con 2aR” value in assay [1] was 135%. Moreover, in assay [2], the “He/Con 2aH” value was found to be 101%. Also, the “He/Con 1a” value in assay [3] stood at 107%. In assay [4], the “He/Con 2b” value is 196%. Besides, the “He/Con 3a” value in assay [5] turned out to be 135%.

B6: GpH7-A5/GpH7-B3 variant I332_16H/GpL16-k0 (antibody, human IgG1, kappa)
heavy 1: not shown
heavy 2: not shown
light: B1 light
notes: as for B1
On to B6, for which the “He/Con 2aR” value in assay [1] came out at 97.6%. The “He/Con 2aH” value in assay [2] worked out at 113%. Further, in assay [3], the “He/Con 1a” value came to 100%. In addition, the “He/Con 2b” value in assay [4] was 103%. In addition, the “He/Con 3a” value in assay [5] stood at 89%.

B7: GpH7-A5/GpH7-B3 variant K326_02A/GpL16-k0 (antibody, human IgG1, kappa)
heavy 1: not shown
heavy 2: not shown
light: B1 light
notes: as for B1
As for B7, in assay [1], the “He/Con 2aR” value worked out at 125%. In addition, the “He/Con 2aH” value in assay [2] was 110%. In assay [3], the “He/Con 1a” value turned out to be 107%. Besides, the “He/Con 2b” value in assay [4] is 156%. The “He/Con 3a” value in assay [5] amounted to 130%.

B8: GpH7-A5/GpH7-B3 variant K326_01G/GpL16-k0 (antibody, human IgG1, kappa)
heavy 1: not shown
heavy 2: not shown
light: B1 light
notes: as for B1
As for B8, the “He/Con 2aR” value in assay [1] stood at 108%. Besides, the “He/Con 2aH” value in assay [2] was found to be 105%. Besides, the “He/Con 1a” value in assay [3] turned out to be 106%. The “He/Con 2b” value in assay [4] is 119%. Further, the “He/Con 3a” value in assay [5] was 114%.

B9: GpH7-A5/GpH7-B3 variant I332_10E/GpL16-k0 (antibody, human IgG1, kappa)
heavy 1: not shown
heavy 2: not shown
light: B1 light
notes: as for B1
Turning to B9, in assay [1], the “He/Con 2aR” value is 113%. The “He/Con 2aH” value in assay [2] stood at 112%. For the same molecule, in assay [3], the “He/Con 1a” value came out at 109%. In addition, in assay [4], the “He/Con 2b” value amounted to 158%. Besides, the “He/Con 3a” value in assay [5] was found to be 213%.

B10: GpH7-A5/GpH7-B3 variant K326_05P/GpL16-k0 (antibody, human IgG1, kappa)
heavy 1: not shown
heavy 2: not shown
light: B1 light
notes: as for B1
As for B10, the “He/Con 2aR” value in assay [1] came to 118%. Also, the “He/Con 2aH” value in assay [2] was determined as 103%. Also, in assay [3], the “He/Con 1a” value turned out to be 106%. For the same molecule, the “He/Con 2b” value in assay [4] amounted to 141%. For the same molecule, in assay [5], the “He/Con 3a” value came out at 117%.

B11: GpH7-A5/GpH7-B3 variant I332_19Q/GpL16-k0 (antibody, human IgG1, kappa)
heavy 1: not shown
heavy 2: not shown
light: B1 light
notes: as for B1
As for B11, the “He/Con 2aR” value in assay [1] stood at 95.1%. In addition, the “He/Con 2aH” value in assay [2] is 112%. In assay [3], the “He/Con 1a” value is 103%. Besides, in assay [4], the “He/Con 2b” value is 104%. In addition, the “He/Con 3a” value in assay [5] worked out at 101%.
